Measured values: patent US12356911B2, “Group of UDP-glycosyltransferase for catalyzing carbohydrate chain elongation and application thereof” (GSYNBIOT (SHANGHAI) CO., LTD, priority 2017, dated 2025)

B1: GT29-25: Ginseng UDP-glycosyltransferase, 446 amino acids, SEQ ID NO: 30 (protein)
chain: MDNQKGRISIVMLPFLAHGHISPFFELAKHLSKRNCNIFLCSTPINLSSIKNRISDKDSSASIKLVELHLPSSPDLPPHYHTTNGLPSHLMVPLRNAFETAAPTFSEILKTLNPDLLIYDFNPSWAPEIASSHNIPAVCFIIGGAASFSMSLHSFKNPGEKYPFLDFDDNSNITPEPPSADNMKLLLDFMTCFERSCDIILIKSFRELEGKYFDFYSTLSDKTLVPVGPLVQDPMGHNEDPKTEQFINWLDKRAESTVVFVCFGSEYFLSNEELEEVAIGLEISMVNFIWAVRLIEGEKKGVLPEGFVQRVGDRGLVVEGWAPQARILGHSSTGGFVSHCGWSSITESMKFGVPVIAMARHFDQPLNAKLAAEVGVGTEVVRDENGKYKREDIAGVIRKVVVEKSGEVIRRKARELSEKMKEIGEQLIDRAVEELVQICKKKKDEQ
modifications: misc_feature - GT29-25; Panax ginseng
B2: GT29-24: Ginseng UDP-glycosyltransferase, 446 amino acids, SEQ ID NO: 28 (protein)
chain: MDNQKGRISIVMLPFLAHGHISPFFELAKHLSKRNCNIFLCSTPINLSSIKNRISDKDSSASIKLVELHLPSSPDLPPHYHTTNGLPSHLMVPLRNAFETAAPTFSEILKTLNPDLLIYDFNPSWAPEIASSHNIPAVCFIIGGAASFSMSLHSFKNPGEKYPFLDFDDNSNITPEPPSADNMKLLLDFMTCFERSCDIILIKSFRELEGKYFDFYSTLSDKTLVPVGPLVQDPMGHNEDPKTEQFINWLDKRAESTVVFVCFGSEYFLSNEELEEVAIGLEISMVNFIWAVRLIEGEKKGVLPEGFVQRVGDRGLVVEGWAPQARILGHSSTGGFVSHCGWSSITESMKFGVPVIAMARHFDQPLNAKLAAEVGVGMEVVRDENGKYKREGIAEVIRKVVVEKSGEVMRRKARELSEKMKEKGEEEIDRAVEELVQICKKKKDAQ
modifications: misc_feature - GT29-24; Panax ginseng
B3: GT29-32: Ginseng UDP-glycosyltransferase, 442 amino acids, SEQ ID NO: 4 (protein)
chain: MDNQEGRISIALLPFLAHGHISPFFELAKQLAKRNCNVFLCSTPINLSSIKNKDSSASIKLVELHLPSSPDLPPHYHTTNGLPSHLMVPLRNAFETAAPTFSEILKTLNPDLLIYDFNPSWAPEIASSHNIPAVYFLTSAAATSSMGLHAFKNSGEKYPFPDFYDNSNITPEPPSADKMKLFHDFVACFKRSCDIILIKSFRELEGKYIDFLSTLSKKTLVPVGPLVQDPMGHDEDPKTGHLINWLDKRAESTVVFVCFGSEYFPSNEELEELAIGLEISMVSFILAVRFPEGEKKGILPEGFVQRVGDRGLVVEGWAPQARILGHSSTGGFVSHCGWSSIMESVKFGVPVIAMARHLDQPLNAKLAAEVGVGMEVMRDENGKYKREAIAEVIRKVVMEKNGEVMRRKARELSEKMKEIGEQLIDRAVEELVQICKKKKDEQ
modifications: misc_feature - GT29-32; Panax ginseng

Key:
Assay type in all cases: biochemical
[1] = In vitro transglycosylation at C-6, Rg1 as glycosyl acceptor, UDP-xylose as donor; conditions: crude enzyme (E. coli lysate supernatant); TLC and HPLC, FIG. 7-9
[2] = In vitro transglycosylation at C-3, Rh2 as glycosyl acceptor, UDP-glucose as donor; conditions: crude enzyme (E. coli lysate supernatant); TLC, FIG. 13, FIG. 15
Description: (§1) Cell lysate of recombinant E. coli with empty vector pET28a was used as a control.

[3] = In vitro transglycosylation at C-3, F2 as glycosyl acceptor, UDP-glucose as donor; conditions: crude enzyme (E. coli lysate supernatant)
[4] = In vitro transglycosylation at C-20, CK as glycosyl acceptor, UDP-glucose as donor; conditions: crude enzyme (E. coli lysate supernatant); TLC/HPLC, FIG. 2, 3, 12, 16
Description: as §1
As shown in FIG. 16: Protopanaxadiol Ginsenoside CK is used as a glycosyl acceptor, and UDP-glucose is used as a glycosyl donor.

[5] = In vitro transglycosylation at C-20, Rd as glycosyl acceptor, UDP-xylose as donor; conditions: crude enzyme (E. coli lysate supernatant); TLC and HPLC, FIG. 2, FIG. 4
[6] = In vitro transglycosylation at C-20, Rd as glycosyl acceptor, UDP-glucose as donor; conditions: crude enzyme (E. coli lysate supernatant); TLC/HPLC, FIG. 2, 3, 11
Description: as §1

[7] = In vitro transglycosylation at C-20, F1 as glycosyl acceptor, UDP-glucose as donor; conditions: crude enzyme (E. coli lysate supernatant); TLC and HPLC, FIG. 5, FIG. 6
[8] = In vitro transglycosylation at C-20, CK as glycosyl acceptor, UDP-arabinose as donor; conditions: crude enzyme (E. coli lysate supernatant); TLC, FIG. 17

Molecule	product formation from Rg1 and UDP-xylose (notoginsenoside R1) [1]	product formation from Rh2 and UDP-glucose (Rg3) [2]	product formation from F2 and UDP-glucose (Rd) [3]	product formation from CK and UDP-glucose (Gypenoside LXXV) [4]	product formation from Rd and UDP-xylose (one product with the mobility of Rb3) [5]	product formation from Rd and UDP-glucose (Rb1) [6]	product formation from F1 and UDP-glucose [7]	product formation from CK and UDP-arabinose (Ginsenoside F3) [8]
B1	can catalyze the formation of Notoginsenoside RI	catalyze the production of ginsenoside Rg3	can further catalyze the extension of a glucosyl at the C-3 glycosyl of F2 to produce ginsenoside Rd					
B2	can catalyze the formation of Notoginsenoside RI	catalyze the production of ginsenoside Rg3	can further catalyze the extension of a glucosyl at the C-3 glycosyl of F2 to produce ginsenoside Rd					
B3				can catalyze the formation of a new product	can catalyze Rd to produce three products	can catalyze the formation of Rb1	can catalyze the formation of a new product	can catalyze the first glycosyl of C-20 of CK to extend an arabinosyl to generate Ginsenoside F3
